Test results as given in patent US20230058779A1, “COMBINATION CANCER TREATMENT USING A PD-1 ANTAGONIST, AN ILT4 ANTAGONIST, AND LENVATINIB OR SALTS THEREOF” (Merck Sharp & Dohme LLC, priority 2020, published 2023).

Tested on: participants with advanced solid tumors
Assay: Phase 1 open label, multi-arm, multi-center study of MK-4830 as monotherapy or in combination with pembrolizumab (NCT03564691)
Assay type: in vivo, human
Settings: 1600 mg dose level, MK-4830 monotherapy cohort

MK-4830: anti-ILT4 antibody; light chain SEQ ID NO:5, heavy chain SEQ ID NO:10
transient Grade 3 blood pressure increase: one episode
